Assay results: paper PMC12287439 (Nature Communications, 2025)

Assays:
LYCHOS [1] = molecular target: T1, LYCHOS (Homo sapiens, UniProt Q7Z3F1, Y57A); test: cryo-EM structure; type: binding
T1 sequence (Q7Z3F1 1-870 Y57A): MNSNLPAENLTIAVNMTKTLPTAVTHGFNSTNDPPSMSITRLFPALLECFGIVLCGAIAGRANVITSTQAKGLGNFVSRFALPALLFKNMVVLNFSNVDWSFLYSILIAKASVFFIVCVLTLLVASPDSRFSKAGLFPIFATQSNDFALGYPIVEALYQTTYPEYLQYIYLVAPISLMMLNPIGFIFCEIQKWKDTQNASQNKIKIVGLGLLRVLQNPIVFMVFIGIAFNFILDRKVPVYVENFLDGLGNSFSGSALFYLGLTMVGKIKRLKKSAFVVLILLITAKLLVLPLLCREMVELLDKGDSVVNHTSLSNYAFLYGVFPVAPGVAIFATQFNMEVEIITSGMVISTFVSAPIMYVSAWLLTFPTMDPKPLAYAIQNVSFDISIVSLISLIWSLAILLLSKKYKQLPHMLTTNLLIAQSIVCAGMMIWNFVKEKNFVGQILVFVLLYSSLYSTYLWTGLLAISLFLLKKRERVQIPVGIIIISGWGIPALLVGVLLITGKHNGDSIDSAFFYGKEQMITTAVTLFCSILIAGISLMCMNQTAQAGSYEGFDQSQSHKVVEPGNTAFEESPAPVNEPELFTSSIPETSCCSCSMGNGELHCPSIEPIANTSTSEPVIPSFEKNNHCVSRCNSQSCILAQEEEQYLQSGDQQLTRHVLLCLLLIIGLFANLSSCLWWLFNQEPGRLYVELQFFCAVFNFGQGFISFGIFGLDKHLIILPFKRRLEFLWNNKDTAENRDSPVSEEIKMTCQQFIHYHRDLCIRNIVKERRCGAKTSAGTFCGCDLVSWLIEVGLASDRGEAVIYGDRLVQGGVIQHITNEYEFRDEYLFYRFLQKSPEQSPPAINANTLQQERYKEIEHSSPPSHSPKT

LYCHOS [2] = molecular target: LYCHOS (Homo sapiens, UniProt Q7Z3F1); test: BRET recruitment of GATOR1; type: cell-based
cryo-EM structure = molecular target: the molecule itself; test: cryo-EM structure

Sequence of LYCHOS (Homo sapiens, UniProt Q7Z3F1) (Q8WTW4 whole entry partner, one chain of several): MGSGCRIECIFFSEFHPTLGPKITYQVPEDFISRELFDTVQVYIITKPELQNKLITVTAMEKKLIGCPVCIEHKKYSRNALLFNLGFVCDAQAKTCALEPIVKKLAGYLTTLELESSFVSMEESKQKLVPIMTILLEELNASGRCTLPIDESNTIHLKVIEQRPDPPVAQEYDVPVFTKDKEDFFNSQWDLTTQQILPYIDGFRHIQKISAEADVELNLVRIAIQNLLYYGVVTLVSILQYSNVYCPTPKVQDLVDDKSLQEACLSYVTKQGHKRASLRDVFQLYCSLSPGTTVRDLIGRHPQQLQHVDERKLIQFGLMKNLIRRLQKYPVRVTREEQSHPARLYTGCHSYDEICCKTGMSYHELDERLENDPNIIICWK
Sequence of LYCHOS (Homo sapiens, UniProt Q7Z3F1) (Q12980 whole entry partner, one chain of several): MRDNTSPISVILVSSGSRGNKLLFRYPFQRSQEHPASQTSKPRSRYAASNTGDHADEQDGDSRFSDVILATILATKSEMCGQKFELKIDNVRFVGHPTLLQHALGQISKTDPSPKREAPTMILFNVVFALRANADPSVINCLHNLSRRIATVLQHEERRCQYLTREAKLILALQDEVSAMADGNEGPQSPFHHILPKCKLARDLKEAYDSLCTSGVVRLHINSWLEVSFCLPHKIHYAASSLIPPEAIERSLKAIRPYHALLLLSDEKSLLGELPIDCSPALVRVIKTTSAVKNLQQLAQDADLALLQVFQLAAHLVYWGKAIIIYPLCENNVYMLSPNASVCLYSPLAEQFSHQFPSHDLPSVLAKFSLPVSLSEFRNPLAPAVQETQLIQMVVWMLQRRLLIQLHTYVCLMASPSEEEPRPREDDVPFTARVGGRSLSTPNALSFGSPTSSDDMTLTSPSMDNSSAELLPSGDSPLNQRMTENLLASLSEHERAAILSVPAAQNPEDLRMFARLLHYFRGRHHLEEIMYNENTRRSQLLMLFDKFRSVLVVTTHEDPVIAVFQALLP
Sequence of LYCHOS (Homo sapiens, UniProt Q7Z3F1) (O75140 whole entry partner, one chain of several): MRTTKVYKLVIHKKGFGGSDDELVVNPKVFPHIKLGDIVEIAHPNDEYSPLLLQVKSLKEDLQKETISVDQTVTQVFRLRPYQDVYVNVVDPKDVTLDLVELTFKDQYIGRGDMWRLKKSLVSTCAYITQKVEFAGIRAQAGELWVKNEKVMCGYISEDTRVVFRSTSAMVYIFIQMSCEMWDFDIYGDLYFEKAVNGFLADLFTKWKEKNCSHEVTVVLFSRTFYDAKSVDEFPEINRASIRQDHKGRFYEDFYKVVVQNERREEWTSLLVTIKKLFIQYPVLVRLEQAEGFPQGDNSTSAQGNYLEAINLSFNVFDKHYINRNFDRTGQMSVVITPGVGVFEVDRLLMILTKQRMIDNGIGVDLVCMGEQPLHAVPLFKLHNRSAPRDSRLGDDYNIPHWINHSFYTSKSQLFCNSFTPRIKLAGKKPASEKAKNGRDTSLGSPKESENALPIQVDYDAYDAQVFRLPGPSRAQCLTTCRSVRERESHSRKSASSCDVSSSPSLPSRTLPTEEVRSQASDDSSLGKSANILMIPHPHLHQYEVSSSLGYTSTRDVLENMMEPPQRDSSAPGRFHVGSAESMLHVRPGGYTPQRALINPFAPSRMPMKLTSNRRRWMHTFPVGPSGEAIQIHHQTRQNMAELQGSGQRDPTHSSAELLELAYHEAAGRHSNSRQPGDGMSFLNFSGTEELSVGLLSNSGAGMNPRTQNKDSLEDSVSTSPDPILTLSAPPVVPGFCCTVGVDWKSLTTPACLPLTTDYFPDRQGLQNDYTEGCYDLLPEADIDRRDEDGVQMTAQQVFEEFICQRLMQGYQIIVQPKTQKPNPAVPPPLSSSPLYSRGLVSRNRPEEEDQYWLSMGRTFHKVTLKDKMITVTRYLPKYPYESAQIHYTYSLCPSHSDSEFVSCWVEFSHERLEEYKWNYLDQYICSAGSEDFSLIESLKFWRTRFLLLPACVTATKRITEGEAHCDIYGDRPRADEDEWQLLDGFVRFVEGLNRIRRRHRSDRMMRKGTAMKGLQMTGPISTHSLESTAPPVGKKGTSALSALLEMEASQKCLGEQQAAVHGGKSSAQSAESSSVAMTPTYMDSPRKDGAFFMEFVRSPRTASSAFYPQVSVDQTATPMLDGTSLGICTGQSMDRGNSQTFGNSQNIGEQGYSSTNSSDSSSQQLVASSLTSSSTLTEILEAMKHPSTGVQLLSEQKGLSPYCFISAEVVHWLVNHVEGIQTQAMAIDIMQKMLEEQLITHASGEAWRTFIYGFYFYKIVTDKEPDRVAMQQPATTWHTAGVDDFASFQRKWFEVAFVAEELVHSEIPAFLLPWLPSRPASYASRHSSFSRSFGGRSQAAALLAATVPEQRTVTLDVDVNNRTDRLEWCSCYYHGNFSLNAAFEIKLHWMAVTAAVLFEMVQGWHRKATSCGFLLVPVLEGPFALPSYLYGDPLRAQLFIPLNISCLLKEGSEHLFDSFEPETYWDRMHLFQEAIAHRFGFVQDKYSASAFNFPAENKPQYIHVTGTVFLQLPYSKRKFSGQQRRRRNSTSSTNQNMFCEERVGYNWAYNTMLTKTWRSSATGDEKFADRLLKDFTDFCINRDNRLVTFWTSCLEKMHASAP

## CC(C)CCC[C@@H](C)[C@H]1CC[C@H]2[C@@H]3CC=C4C[C@@H](OC(=O)CCC(=O)O)CC[C@]4(C)[C@H]3CC[C@]12C [CHS, cholesteryl hemisuccinate]
LYCHOS [1]
  cryo-EM structure (3.21 Å, contracted state): We found there exist two CHS molecules in the CBC, with which GLD is locked in contracted state

## CC(C)CCC[C@@H](C)[C@H]1CC[C@H]2[C@@H]3CC=C4C[C@@H](O)CC[C@]4(C)[C@H]3CC[C@]12C [cholesterol]
LYCHOS [2]
  EC50: 165 nM

B1: human LYCHOS, wild type (lysosomal cholesterol signaling protein) (natural protein, UniProt Q7Z3F1 1-870, looked up)
chain: MNSNLPAENLTIAVNMTKTLPTAVTHGFNSTNDPPSMSITRLFPALLECFGIVLCGYIAGRANVITSTQAKGLGNFVSRFALPALLFKNMVVLNFSNVDWSFLYSILIAKASVFFIVCVLTLLVASPDSRFSKAGLFPIFATQSNDFALGYPIVEALYQTTYPEYLQYIYLVAPISLMMLNPIGFIFCEIQKWKDTQNASQNKIKIVGLGLLRVLQNPIVFMVFIGIAFNFILDRKVPVYVENFLDGLGNSFSGSALFYLGLTMVGKIKRLKKSAFVVLILLITAKLLVLPLLCREMVELLDKGDSVVNHTSLSNYAFLYGVFPVAPGVAIFATQFNMEVEIITSGMVISTFVSAPIMYVSAWLLTFPTMDPKPLAYAIQNVSFDISIVSLISLIWSLAILLLSKKYKQLPHMLTTNLLIAQSIVCAGMMIWNFVKEKNFVGQILVFVLLYSSLYSTYLWTGLLAISLFLLKKRERVQIPVGIIIISGWGIPALLVGVLLITGKHNGDSIDSAFFYGKEQMITTAVTLFCSILIAGISLMCMNQTAQAGSYEGFDQSQSHKVVEPGNTAFEESPAPVNEPELFTSSIPETSCCSCSMGNGELHCPSIEPIANTSTSEPVIPSFEKNNHCVSRCNSQSCILAQEEEQYLQSGDQQLTRHVLLCLLLIIGLFANLSSCLWWLFNQEPGRLYVELQFFCAVFNFGQGFISFGIFGLDKHLIILPFKRRLEFLWNNKDTAENRDSPVSEEIKMTCQQFIHYHRDLCIRNIVKERRCGAKTSAGTFCGCDLVSWLIEVGLASDRGEAVIYGDRLVQGGVIQHITNEYEFRDEYLFYRFLQKSPEQSPPAINANTLQQERYKEIEHSSPPSHSPKT
cryo-EM structure
  stoichiometry N: 2

B2: human LYCHOS Y57A (natural protein, UniProt Q7Z3F1 1-870, looked up)
chain: MNSNLPAENLTIAVNMTKTLPTAVTHGFNSTNDPPSMSITRLFPALLECFGIVLCGAIAGRANVITSTQAKGLGNFVSRFALPALLFKNMVVLNFSNVDWSFLYSILIAKASVFFIVCVLTLLVASPDSRFSKAGLFPIFATQSNDFALGYPIVEALYQTTYPEYLQYIYLVAPISLMMLNPIGFIFCEIQKWKDTQNASQNKIKIVGLGLLRVLQNPIVFMVFIGIAFNFILDRKVPVYVENFLDGLGNSFSGSALFYLGLTMVGKIKRLKKSAFVVLILLITAKLLVLPLLCREMVELLDKGDSVVNHTSLSNYAFLYGVFPVAPGVAIFATQFNMEVEIITSGMVISTFVSAPIMYVSAWLLTFPTMDPKPLAYAIQNVSFDISIVSLISLIWSLAILLLSKKYKQLPHMLTTNLLIAQSIVCAGMMIWNFVKEKNFVGQILVFVLLYSSLYSTYLWTGLLAISLFLLKKRERVQIPVGIIIISGWGIPALLVGVLLITGKHNGDSIDSAFFYGKEQMITTAVTLFCSILIAGISLMCMNQTAQAGSYEGFDQSQSHKVVEPGNTAFEESPAPVNEPELFTSSIPETSCCSCSMGNGELHCPSIEPIANTSTSEPVIPSFEKNNHCVSRCNSQSCILAQEEEQYLQSGDQQLTRHVLLCLLLIIGLFANLSSCLWWLFNQEPGRLYVELQFFCAVFNFGQGFISFGIFGLDKHLIILPFKRRLEFLWNNKDTAENRDSPVSEEIKMTCQQFIHYHRDLCIRNIVKERRCGAKTSAGTFCGCDLVSWLIEVGLASDRGEAVIYGDRLVQGGVIQHITNEYEFRDEYLFYRFLQKSPEQSPPAINANTLQQERYKEIEHSSPPSHSPKT
cryo-EM structure
  stoichiometry N: 2

B3: LYCHOSPLD (permease-like domain of human LYCHOS) (domain or fragment)
chain: MNSNLPAENLTIAVNMTKTLPTAVTHGFNSTNDPPSMSITRLFPALLECFGIVLCGYIAGRANVITSTQAKGLGNFVSRFALPALLFKNMVVLNFSNVDWSFLYSILIAKASVFFIVCVLTLLVASPDSRFSKAGLFPIFATQSNDFALGYPIVEALYQTTYPEYLQYIYLVAPISLMMLNPIGFIFCEIQKWKDTQNASQNKIKIVGLGLLRVLQNPIVFMVFIGIAFNFILDRKVPVYVENFLDGLGNSFSGSALFYLGLTMVGKIKRLKKSAFVVLILLITAKLLVLPLLCREMVELLDKGDSVVNHTSLSNYAFLYGVFPVAPGVAIFATQFNMEVEIITSGMVISTFVSAPIMYVSAWLLTFPTM
cryo-EM structure
  stoichiometry N: 2
